Results published in patent publication US20180282393A1 (IMMATICS BIOTECHNOLOGIES, published 2018).

Target: T1, HLA-A*02:01 (human)
T1 construct: Captured on streptavidin plates and detected with anti-b2m; also called peptide-receptive MHC molecules; MHC class I
Test: UV-ligand exchange, anti-b2m ELISA; peptide exchange yield grade (+ >=10%, ++ >=20%, +++ >=50, ++++ >=75%)
Description: Candidate peptides for T cell based therapies according to the present invention were further tested for their MHC binding capacity (affinity). The individual peptide-MHC complexes were produced by UV-ligand exchange, where a UV-sensitive peptide is cleaved upon UV-irradiation, and exchanged with the peptide of interest as analyzed. Only peptide candidates that can effectively bind and stabilize the peptide-receptive MHC molecules prevent dissociation of the MHC complexes. To determine the yield of the exchange reaction, an ELISA was performed based on the detection of the light chain (β2m) of stabilized MHC complexes. The assay was performed as generally described in Rodenko et al. (Rodenko et al., 2006).
96 well MAXISorp plates (NUNC) were coated over night with 2 ug/ml streptavidin in PBS at room temperature, washed 4× and blocked for 1 h at 37° C. in 2% BSA containing blocking buffer. Refolded HLA-A*02:01/MLA-001 monomers served as standards, covering the range of 15-500 ng/ml. Peptide-MHC monomers of the UV-exchange reaction were diluted 100 fold in blocking buffer. Samples were incubated for 1 h at 37° C., washed four times, incubated with 2 ug/ml HRP conjugated anti-β2m for 1 h at 37° C., washed again and detected with TMB solution that is stopped with […]. Absorption was measured at 450 nm. Candidate peptides that show a high exchange yield (preferably higher than 50%, most preferred higher than 75%) are generally preferred for a generation and production of antibodies or fragments thereof, and/or T cell receptors or fragments thereof, as they show sufficient avidity to the MHC molecules and prevent dissociation of the MHC complexes.

VLASGFLTV
peptide exchange yield: ≥ 75%

KLNDTYVNV
peptide exchange yield: 50 to 75%

TQTAVITRI
peptide exchange yield: 10 to 20%

ALWLPTDSATV
peptide exchange yield: 50 to 75%

VLPKLYVKL
peptide exchange yield: 20 to 50%

MLTELEKAL
peptide exchange yield: 20 to 50%

FLPPAQVTV
peptide exchange yield: 20 to 50%

TASAITPSV
peptide exchange yield: 50 to 75%

FLLRFSQDNA
peptide exchange yield: 20 to 50%

GLDVTSLRPFDL
peptide exchange yield: 50 to 75%

KLSDSATYL
peptide exchange yield: 50 to 75%

YTQPFSHYGQAL
peptide exchange yield: 50 to 75%

ASDPILYRPVAV
peptide exchange yield: 50 to 75%

GLAPFLLNAV
peptide exchange yield: 50 to 75%

SLYNLGGSKRISI
peptide exchange yield: ≥ 75%

VLAEGGEGV
peptide exchange yield: 50 to 75%

NLMASQPQL
peptide exchange yield: 50 to 75%

LAYTLGVKQL
peptide exchange yield: 50 to 75%

PAVLQSSGLYSL
peptide exchange yield: 20 to 50%

SLLDTLREV
peptide exchange yield: 50 to 75%

IAAIRGFLV
peptide exchange yield: 50 to 75%

SLSPVILGV
peptide exchange yield: ≥ 75%

GLASRILDA
peptide exchange yield: 50 to 75%

TQTTHELTI
peptide exchange yield: 50 to 75%

YMLDIFHEV
peptide exchange yield: 20 to 50%

VVMEELLKV
peptide exchange yield: 20 to 50%

STYGGGLSV
peptide exchange yield: 50 to 75%

ATGNDRKEAAENSL
peptide exchange yield: 50 to 75%

GLAPNTPGKA
peptide exchange yield: 50 to 75%

KVVGKDYLL
peptide exchange yield: 10 to 20%

SLDGTELQL
peptide exchange yield: 50 to 75%

SLVSEQLEPA
peptide exchange yield: 50 to 75%

FLLDQVQLGL
peptide exchange yield: 50 to 75%

GLESEELEPEEL
peptide exchange yield: 20 to 50%

GLTDVIRDV
peptide exchange yield: ≥ 75%

ALVEVTEHV
peptide exchange yield: 20 to 50%

YTAQIGADIAL
peptide exchange yield: 50 to 75%

LLDEKVQSV
peptide exchange yield: 50 to 75%

RLPNAGTQV
peptide exchange yield: ≥ 75%

LLPPPPPPA
peptide exchange yield: 50 to 75%

SMNGGVFAV
peptide exchange yield: 20 to 50%

YQDLLNVKM
peptide exchange yield: 50 to 75%

KLFGHLTSA
peptide exchange yield: 20 to 50%

LLSGDLIFL
peptide exchange yield: 50 to 75%

MISRTPEV
peptide exchange yield: 20 to 50%

SLDGFTIQV
peptide exchange yield: 20 to 50%

MLAEKLLQA
peptide exchange yield: 10 to 20%

LILESIPVV
peptide exchange yield: 20 to 50%

FVLDTSESV
peptide exchange yield: 50 to 75%

IVREFLTAL
peptide exchange yield: 50 to 75%

SIFEGLLSGV
peptide exchange yield: 20 to 50%

GLLVGSEKVTM
peptide exchange yield: 50 to 75%

SLNGNQVTV
peptide exchange yield: 10 to 20%

LLANGVYAA
peptide exchange yield: 10 to 20%

LLFAGTMTV
peptide exchange yield: 20 to 50%

GLAFSLYQA
peptide exchange yield: 20 to 50%

GAIDLLHNV
peptide exchange yield: 20 to 50%

ALYEYQPLQI
peptide exchange yield: 20 to 50%

LVRDTQSGSL
peptide exchange yield: 20 to 50%

YVVGGFLYQRL
peptide exchange yield: 50 to 75%

GLMKDIVGA
peptide exchange yield: 50 to 75%

NLREGDQLL
peptide exchange yield: 50 to 75%

VAIGGVDGNVRL
peptide exchange yield: 20 to 50%

LLRFSQDNA
peptide exchange yield: 50 to 75%

SMHQMLDQTL
peptide exchange yield: 20 to 50%

VVVTGLTLV
peptide exchange yield: 20 to 50%
